Reference: the supplement of paper PMC7877785
± gives the uncertainty stated by the source.

Assay: self-splicing fitness, log relative to wild type (ln ratio); higher = more splicing; Tetrahymena group I intron in knt gene, E. coli kanamycin selection, DiMSum; sequences stand for … in CUCUCU…GGAGGGAAAAGUUAUCAGGCAUGCACCUGGUAGCUAGUCUUUAAACCAAUAGAUUGCAUCGGUUUAAAAGGCAAGACCGUCAAAUUGCGGGAAAGGGGUCAACAGCCGUUCAGUACCAAGUCUCAGGGGAAACUUUGAGAUGGCCUUGCAAAGGGUAUGGUAAUAAGCUGACGGACAUGGUCCUAACCACGCAGCCAAGUCCUAAGUCAACAGAUCUUCUGUUGAUAUGGAUGCAGUUCACAGACUAAAUGUCGGUCGGGGAAGAUGUAUUCUUCUCAUAAGAUAUAGUCGGACCUCUCCUUAAUGGGAGCUAGCGGAUGAAGUGAUGCAACACUGGAGCCGCUGGGAACUAAUUUGUAUGCGAAAGUAUAUUGAUUAGUUUUGGAGUACUCGUGGUCG
Outline: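 Colonies from six replicate transformations of E. coli BL21(DE3) were pooled and amplicon-sequenced on an Illumina HiSeq 2500. The library placed an intron with all eight P1ex-region nucleotides randomised inside the knt kanamycin-resistance gene on pET-22b(+), and cells grew overnight at 37°C or 30°C on LB agar with or without 25 μg/mL kanamycin (plus 100 μg/mL carbenicillin, 50 μM IPTG, 0.2% rhamnose). Fitness is the DiMSum error-weighted combination of wild-type-normalised replicate fold changes, kanamycin versus none.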

Row | Sequence | self-splicing fitness (ln) (30 °C) | self-splicing fitness (ln) (37 °C)
1 | ACAAAGCAAUAUUACGCUUG | -1.62 ± 0.057 | -0.984 ± 0.079
2 | CUUCAGCAAUAUUACGCCAG | -0.975 ± 0.11 | -0.132 ± 0.17
3 | UUGUAGCAAUAUUACGCACA | -0.174 ± 0.17 | -0.658 ± 0.22
4 | CAUAAGCAAUAUUACGUCAU | -3.67 ± 0.19 | -2.19 ± 0.19
5 | AAUUAGCAAUAUUACGCGGU | -3.63 ± 0.21 | -1.55 ± 0.21
6 | CGAUAGCAAUAUUACGCCGA | -1.92 ± 0.21 | -2.05 ± 0.28
7 | UAUAAGCAAUAUUACGCACU | 0.11 ± 0.12 | -0.923 ± 0.12
8 | CUUAAGCAAUAUUACGGUUA | – | -2.16 ± 0.29
9 | AACCAGCAAUAUUACGGGCC | -1.4 ± 0.082 | -0.824 ± 0.11
10 | GGCUAGCAAUAUUACGCUAA | -0.801 ± 0.2 | -0.34 ± 0.15
11 | GCGCAGCAAUAUUACGGUGU | -2.83 ± 0.14 | -2.47 ± 0.17
12 | CCUAAGCAAUAUUACGCGGU | -2.54 ± 0.13 | -3.06 ± 0.18
13 | GUAGAGCAAUAUUACGCAAG | -0.744 ± 0.22 | -1.49 ± 0.27
14 | AGUAAGCAAUAUUACGGAUA | -2.85 ± 0.28 | -1.69 ± 0.21
15 | GCUGAGCAAUAUUACGGAUC | -1.43 ± 0.087 | -0.415 ± 0.12
16 | GUGAAGCAAUAUUACGGGAU | -1.1 ± 0.07 | -0.971 ± 0.093
17 | CUUUAGCAAUAUUACGUUAA | -2.87 ± 0.27 | –

Row | Sequence | self-splicing fitness (ln) (30 °C) | self-splicing fitness (ln) (37 °C)
18 | CUCGAGCAAUAUUACGUCCG | -3.41 ± 0.18 | -3.68 ± 0.42
19 | CGUCAGCAAUAUUACGUUAU | -2.95 ± 0.14 | -2.83 ± 0.17
20 | CACUAGCAAUAUUACGAGAC | -3.77 ± 0.46 | –
21 | UAGGAGCAAUAUUACGAUUU | -2.44 ± 0.15 | -1.4 ± 0.24
22 | GAGUAGCAAUAUUACGCGCA | -1.93 ± 0.15 | -0.701 ± 0.2
23 | UCGUAGCAAUAUUACGUAAU | -2.47 ± 0.14 | -1.78 ± 0.17
24 | AAAGAGCAAUAUUACGAAUU | -1.32 ± 0.22 | -2.28 ± 0.31
25 | CACUAGCAAUAUUACGCAUC | -4.23 ± 0.43 | -3.53 ± 0.37
26 | CUGGAGCAAUAUUACGCACG | -0.0736 ± 0.32 | -1.08 ± 0.29
27 | CUAAAGCAAUAUUACGCUCU | -2.94 ± 0.41 | –
28 | AGAGAGCAAUAUUACGGGCG | -3.07 ± 0.34 | -2.3 ± 0.5
29 | CGGAAGCAAUAUUACGGACU | -0.00733 ± 0.094 | -0.0682 ± 0.14
30 | GCACAGCAAUAUUACGACAG | -2.97 ± 0.25 | -1.8 ± 0.23
31 | AGACAGCAAUAUUACGUAUA | -2.54 ± 0.14 | -0.807 ± 0.13
32 | CGAUAGCAAUAUUACGCAAU | -3.43 ± 0.27 | -2.26 ± 0.25
33 | UGUUAGCAAUAUUACGCUUA | -1.73 ± 0.18 | -0.323 ± 0.21
34 | GGCCAGCAAUAUUACGAAGA | -3.15 ± 0.22 | -2.85 ± 0.27
